Assay results reported in patent publication US20170362325A1.

Molecular target: CD18 (Integrin beta-2) (human) (UniProt P05107)
Experiment: cell-based or functional assay

UniProt P05107, sequence (P05107 23-769): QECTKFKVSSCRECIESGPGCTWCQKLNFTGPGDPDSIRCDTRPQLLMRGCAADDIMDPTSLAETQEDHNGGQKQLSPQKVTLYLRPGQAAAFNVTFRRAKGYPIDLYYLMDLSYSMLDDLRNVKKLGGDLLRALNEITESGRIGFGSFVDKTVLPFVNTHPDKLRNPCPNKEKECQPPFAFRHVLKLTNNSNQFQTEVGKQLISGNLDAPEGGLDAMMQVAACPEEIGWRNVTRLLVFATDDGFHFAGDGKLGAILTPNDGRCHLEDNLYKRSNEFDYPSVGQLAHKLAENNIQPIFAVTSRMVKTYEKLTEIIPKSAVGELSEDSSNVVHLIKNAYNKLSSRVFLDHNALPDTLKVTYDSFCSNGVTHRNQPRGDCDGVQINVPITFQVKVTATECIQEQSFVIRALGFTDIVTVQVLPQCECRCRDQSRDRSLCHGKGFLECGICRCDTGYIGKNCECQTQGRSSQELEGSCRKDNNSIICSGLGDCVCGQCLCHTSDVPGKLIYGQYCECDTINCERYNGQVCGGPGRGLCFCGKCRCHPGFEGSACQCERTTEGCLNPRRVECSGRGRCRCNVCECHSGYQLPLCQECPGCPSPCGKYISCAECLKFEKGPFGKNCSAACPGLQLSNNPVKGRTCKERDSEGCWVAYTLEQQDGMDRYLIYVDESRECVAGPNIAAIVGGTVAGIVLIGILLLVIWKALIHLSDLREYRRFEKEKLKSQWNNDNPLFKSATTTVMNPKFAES

3H-thymidine uptake (cpm), PBMC + HUVEC + PSMA×CD3, off target activation (FIG. 3A; control about 30000 cpm): < 10000 cpm
Substance: anti-CD18 antibody molecule TS 1/18
